Test results: the supplement of paper PMC6757056
± gives the standard deviation of the averaged measurements.

B1: library; a variant is named by its letters at N, in order (parent)
chain: GCUGUCACCGAGAAACUGUGAAGUAUAUCUUAAACCUGGGCACUUAAAAGAUAUAUGGAGUUAGUAGUGCAACCUGCUCGGUCUGAUGAGUCCNNNNNNGGACGAAACAGC

What was measured:
cyclic di-GMP [1] = variants of: B1; experiment: normalized RNA/DNA level without ligand (relative to sTRSVctl = 100) (log10 (% of sTRSVctl)); HEK293T; ligand: cyclic di-GMP (c-di-GMP-II aptamer); higher = less ribozyme self-cleavage, higher mRNA level; details: reporter: mCherry (pCS4076), ligand present: no
Outline: (§1)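 Ribozyme switch library plasmids linked to reporters were introduced into HEK293T cells at 4 µg per 6-well well, with ligand, if any, added 1 h before. Total RNA was extracted with EDTA 72 h later, reverse-transcribed, amplified, barcoded and sequenced. RNA level was computed from RNA over DNA reads relative to a spiked-in non-cleaving sequence or the top sequences, then scaled and log-transformed. The top set was 25 sequences, values were ×100 and log10, and the cutoff was ≥100 DNA reads.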

cyclic di-GMP [2] = variants of: B1; experiment: normalized RNA/DNA level with ligand (relative to sTRSVctl = 100) (log10 (% of sTRSVctl)); HEK293T; ligand: cyclic di-GMP (c-di-GMP-II aptamer); ligand concentration (+) RNA-Seq: 1 mM; higher = less ribozyme self-cleavage, higher mRNA level; details: reporter: mCherry (pCS4076), ligand present: yes
Outline: as §1

Row | Variant | normalized RNA/DNA level without ligand (log10) (cyclic di-GMP [1]) | normalized RNA/DNA level with ligand (log10) (cyclic di-GMP [2])
1 | CUUAGG | 1.79 ± 0.072 | 1.89 ± 0.13
2 | CUUAGU | 1.78 ± 0.051 | 1.88 ± 0.058
3 | CUUAGA | 1.61 ± 0.024 | 1.79 ± 0.12
4 | UUGUUU | 1.78 ± 0.041 | 1.92 ± 0.085
5 | UUGUUG | 1.67 ± 0.053 | 1.86 ± 0.13
6 | UUGUUA | 1.64 ± 0.022 | 1.81 ± 0.12
7 | AUGUUC | 1.681 ± 0.01 | 1.84 ± 0.1
8 | AUGUUU | 1.56 ± 0.034 | 1.77 ± 0.15
9 | AUGUUG | 1.56 ± 0.036 | 1.72 ± 0.14
10 | CUGUAG | 1.66 ± 0.051 | 1.84 ± 0.1
11 | CUGUAA | 1.26 ± 0.086 | 1.51 ± 0.1
12 | CUGUAC | 1.67 ± 0.033 | 1.82 ± 0.096
13 | AUGGAG | 1.55 ± 0.1 | 1.68 ± 0.084
14 | AUGGAC | 1.6 ± 0.055 | 1.76 ± 0.091
15 | UUGCCC | 1.83 ± 0.081 | 1.84 ± 0.2
16 | UUGCCU | 1.746 ± 0.0023 | 1.89 ± 0.091
17 | UUGCCG | 1.83 ± 0.058 | 1.91 ± 0.12
18 | UUGCCA | 1.8 ± 0.08 | 1.82 ± 0.13
19 | CUUCUC | 1.77 ± 0.049 | 1.86 ± 0.14
20 | AUGUCA | 1.59 ± 0.072 | 1.78 ± 0.066
21 | AUGUCU | 1.7 ± 0.028 | 1.84 ± 0.046
22 | AUGUCG | 1.64 ± 0.035 | 1.76 ± 0.087
23 | AUGUCC | 1.74 ± 0.02 | 1.86 ± 0.15

Row | Variant | normalized RNA/DNA level without ligand (log10) (cyclic di-GMP [1]) | normalized RNA/DNA level with ligand (log10) (cyclic di-GMP [2])
24 | AUGGGG | 1.56 ± 0.12 | 1.68 ± 0.08
25 | AUGGGA | 1.4 ± 0.12 | 1.56 ± 0.074
26 | AUGGGC | 1.626 ± 0.015 | 1.79 ± 0.16
27 | GUUAAC | 1.67 ± 0.046 | 1.8 ± 0.037
28 | GUUAAA | 1.51 ± 0.079 | 1.7 ± 0.12
29 | AUUCUC | 1.806 ± 0.0079 | 1.89 ± 0.1
30 | AUUCUA | 1.595 ± 0.0027 | 1.78 ± 0.13
31 | UUGUAA | 1.685 ± 0.015 | 1.86 ± 0.15
32 | UUGUAC | 1.74 ± 0.089 | 1.85 ± 0.18
33 | AUGUGG | 1.59 ± 0.051 | 1.72 ± 0.081
34 | AUGUGC | 1.6033 ± 0.00051 | 1.77 ± 0.14
35 | AUGUGA | 1.44 ± 0.082 | 1.65 ± 0.11
36 | CUGCAU | 1.6242 ± 0.0013 | 1.77 ± 0.16
37 | CUGCAG | 1.73 ± 0.075 | 1.88 ± 0.11
38 | AUGGUC | 1.67 ± 0.018 | 1.81 ± 0.1
39 | AUGGUU | 1.46 ± 0.03 | 1.68 ± 0.1
40 | CUUAUC | 1.73 ± 0.088 | 1.87 ± 0.14
41 | CUUAUG | 1.67 ± 0.022 | 1.81 ± 0.1
42 | CUUAUU | 1.54 ± 0.023 | 1.71 ± 0.065
43 | AUGCUC | 1.74 ± 0.052 | 1.85 ± 0.046
44 | AUGCUA | 1.57 ± 0.034 | 1.77 ± 0.06
45 | AUGCUG | 1.68 ± 0.028 | 1.83 ± 0.074
46 | AUGCUU | 1.61 ± 0.025 | 1.8 ± 0.12

Row | Variant | normalized RNA/DNA level without ligand (log10) (cyclic di-GMP [1]) | normalized RNA/DNA level with ligand (log10) (cyclic di-GMP [2])
47 | UUGCAU | 1.669 ± 0.0095 | 1.81 ± 0.081
48 | UUGCAG | 1.8468 ± 0.00037 | 1.9 ± 0.042
49 | CUGCUU | 1.6 ± 0.06 | 1.76 ± 0.09
50 | CUGCUG | 1.63 ± 0.055 | 1.79 ± 0.11
51 | CUGCUC | 1.7 ± 0.0046 | 1.83 ± 0.14
52 | CUGCUA | 1.4 ± 0.025 | 1.57 ± 0.091
53 | UUUCAC | 1.73 ± 0.093 | 1.84 ± 0.14
54 | UUUCAA | 1.712 ± 0.0062 | 1.86 ± 0.092
55 | UUUCAU | 1.72 ± 0.035 | 1.83 ± 0.12
56 | UUUCAG | 1.75 ± 0.022 | 1.86 ± 0.1
57 | AUUCAU | 1.74 ± 0.045 | 1.84 ± 0.11
58 | AUUCAA | 1.58 ± 0.032 | 1.77 ± 0.15
59 | AUUCAC | 1.76 ± 0.021 | 1.88 ± 0.09
60 | CUGGCC | 1.8041 ± 0.00089 | 1.87 ± 0.096
61 | CUGGCU | 1.771 ± 0.0077 | 1.87 ± 0.067
62 | CUGGCG | 1.74 ± 0.057 | 1.85 ± 0.092
63 | CUGGCA | 1.638 ± 0.015 | 1.73 ± 0.14
64 | AUUAGU | 1.686 ± 0.01 | 1.83 ± 0.11
65 | AUUAGG | 1.56 ± 0.065 | 1.72 ± 0.17
66 | AUUAGA | 1.52 ± 0.12 | 1.69 ± 0.058
67 | GUGUCG | 1.685 ± 0.012 | 1.79 ± 0.11
68 | GUGUCU | 1.72 ± 0.031 | 1.84 ± 0.13
69 | GUGUCC | 1.77 ± 0.045 | 1.86 ± 0.094

Row | Variant | normalized RNA/DNA level without ligand (log10) (cyclic di-GMP [1]) | normalized RNA/DNA level with ligand (log10) (cyclic di-GMP [2])
70 | GUGUCA | 1.75 ± 0.027 | 1.85 ± 0.11
71 | AUGCCU | 1.74 ± 0.044 | 1.87 ± 0.14
72 | AUGCCC | 1.79 ± 0.051 | 1.82 ± 0.14
73 | AUGCCG | 1.7503 ± 0.0015 | 1.86 ± 0.13
74 | GUUCGG | 1.71 ± 0.018 | 1.84 ± 0.12
75 | GUUCGC | 1.83 ± 0.062 | 1.92 ± 0.073
76 | UUGGUG | 1.6 ± 0.1 | 1.78 ± 0.11
77 | UUGGUC | 1.77 ± 0.0052 | 1.86 ± 0.11
78 | UUGGUA | 1.45 ± 0.084 | 1.73 ± 0.11
79 | UUGGUU | 1.7 ± 0.027 | 1.84 ± 0.097
80 | CUGGAU | 1.53 ± 0.094 | 1.73 ± 0.053
81 | CUGGAG | 1.604 ± 0.006 | 1.77 ± 0.099
82 | CUGGAC | 1.63 ± 0.018 | 1.77 ± 0.096
83 | AUUAUU | 1.63 ± 0.042 | 1.79 ± 0.1
84 | AUUAUA | 1.58 ± 0.03 | 1.74 ± 0.095
85 | AUUAUG | 1.58 ± 0.022 | 1.77 ± 0.1
86 | CUGUCU | 1.57 ± 0.086 | 1.76 ± 0.067
87 | CUGUCG | 1.73 ± 0.047 | 1.84 ± 0.14
88 | CUGUCC | 1.786 ± 0.0046 | 1.92 ± 0.12
89 | GUGUAA | 1.48 ± 0.027 | 1.67 ± 0.1
90 | GUGUAG | 1.7031 ± 0.0011 | 1.85 ± 0.095
91 | GUGUAU | 1.6 ± 0.018 | 1.78 ± 0.14
92 | GUGUAC | 1.58 ± 0.025 | 1.78 ± 0.089

Row | Variant | normalized RNA/DNA level without ligand (log10) (cyclic di-GMP [1]) | normalized RNA/DNA level with ligand (log10) (cyclic di-GMP [2])
93 | CUUCCA | 1.61 ± 0.089 | 1.78 ± 0.085
94 | CUUCCC | 1.8 ± 0.024 | 1.88 ± 0.14
95 | CUUCCU | 1.64 ± 0.025 | 1.8 ± 0.084
96 | CUUCCG | 1.761 ± 0.017 | 1.89 ± 0.1
97 | GUGUUU | 1.72 ± 0.023 | 1.9 ± 0.092
98 | UUGGAU | 1.63 ± 0.032 | 1.83 ± 0.1
99 | UUGGAG | 1.6 ± 0.037 | 1.71 ± 0.066
100 | UUGGAC | 1.665 ± 0.0078 | 1.78 ± 0.08
101 | AUUACC | 1.73 ± 0.057 | 1.88 ± 0.052
102 | AUUACU | 1.73 ± 0.029 | 1.86 ± 0.081
103 | AUUACA | 1.63 ± 0.027 | 1.79 ± 0.071
104 | UUUAUC | 1.74 ± 0.056 | 1.83 ± 0.12
105 | UUUAUU | 1.72 ± 0.084 | 1.88 ± 0.15
106 | UUUAUG | 1.707 ± 0.0064 | 1.84 ± 0.11
107 | UUUAUA | 1.7 ± 0.035 | 1.84 ± 0.1
108 | GUGGAG | 1.61 ± 0.059 | 1.71 ± 0.092
109 | AUGCAU | 1.62 ± 0.045 | 1.76 ± 0.12
110 | AUGCAG | 1.7646 ± 0.00074 | 1.89 ± 0.055
111 | CUUCAG | 1.732 ± 0.0075 | 1.81 ± 0.067
112 | CUUCAC | 1.734 ± 0.0076 | 1.86 ± 0.088
113 | UUGUCG | 1.79 ± 0.032 | 1.89 ± 0.05
114 | UUGUCC | 1.8 ± 0.026 | 1.89 ± 0.098
115 | UUGUCA | 1.77 ± 0.045 | 1.9 ± 0.1
